In patent publication US20200057058A1 (MIT, published 2020):

Legend:
[1] = biological target: monomeric streptavidin variant mSA2; test: fluorescent binding assay, labeled mSA2 in 50% blood serum on thin film, 4 h exposure
Description: (§1) The binding function of rcSso7d.SA oligomer-PNIPAM thin films was measured using fluorescently-labeled monomeric streptavidin (mSA2) and fluorescently-labeled streptavidin (SA). Details for the expression, purification, and fluorescent labeling of mSA2 are provided below. Samples were prepared by serial dilution of SA or mSA2 in PBS (pH 7.4), human urine (diluted to 50% v/v in PBS, pH 7.4), or blood serum (obtained as the supernatant by centrifuging whole blood at 1500×g for 10 minutes, then diluted to 50% v/v in PBS, pH 7.4). 0.5 μL drops of solutions containing serially diluted fluorescent mSA2 and fluorescent SA samples in PBS (pH 7.4) were gently applied to the surface of each bioconjugate thin film. Films were incubated in a sealed chamber saturated with water vapor at room temperature to prevent to prevent drying of the applied fluorescent samples. […] Fluorescence microscopy images were acquired at 4× magnification using a Cy5 filter set and exposure time of 5000 ms on an Olympus IX-81 inverted fluorescence microscope with an AxioCam HRC CCD camera. Fluorescent intensity was calculated using ImageJ software⁶⁷ by determining the average fluorescent signal in a rectangular area of the fluorescent image free of defects and occupying no less than half of the full sample application area.
(§2) To evaluate how the apparent size-based diffusion properties translated to biosensing capabilities, binding curves were measured using SA and mSA2 solutions in buffer. Binding curves were fit with a quadratic model that is a function of three parameters: the average MFI per binding event a, the total concentration of binding sites [P]T, and the apparent dissociation constant K_{d,app} describing the binding equilibrium between analyte and binding sites within the thin film.

streptavidin [2] = biological target: T1, streptavidin (UniProt P22629 37-163, limits assumed); test: fluorescent binding curve, labeled SA in 50% urine, 4 h; quadratic fit
T1 construct: It was used without a stated label in the sandwich assays; also called SA

streptavidin [3] = biological target: T1, streptavidin; test: fluorescent binding curve, labeled SA in 50% blood serum, 4 h; quadratic fit
streptavidin [4] = biological target: T1, streptavidin; test: sandwich assay: SA in 50% blood serum, biotin-HRP/TMB detection
Description: (§3) Each well was submerged in 1 mL of 1% BSA in Milli-Q water, and the 12-well plate was incubated at 37° C. for 30 minutes. The wells were rinsed twice by adding 2 mL of Milli-Q water and gently shaking the well plate at 70 rpm for 5 minutes. 1 mL of streptavidin diluted in PBS, urine, or blood serum (prepared as described in the Fluorescent Assays section) containing 0.1% BSA was then added to each well, and the well plate was shaken at 70 rpm for 4 hours at room temperature. Wells were rinsed twice with 2 mL of Milli-Q water then twice with 2 mL of 0.1% BSA in Milli-Q water by shaking at 70 rpm for 5 minutes. After rinsing, wells were submerged in 1 mL of 200 ng/mL biotin-HRP in Milli-Q water containing 0.1% BSA, and the well plate was shaken at 70 rpm for 1 hour at room temperature. Wells were then rinsed with water and 0.1% BSA as described previously. 1 mL of solution from a Pierce TMB substrate kit (Thermo Fisher Scientific) was added to each well, and the well plate was shaken vigorously at 125 rpm for 15 minutes at room temperature. 1 mL of 2M H2SO4 was added to each well, and the absorbance at 450 nm was read using a Tecan Infinite M200 PRO plate reader.
(§4) The general procedure for this proof-of-concept experiment is diagrammed in FIG. 28. Films were first exposed to SA solutions and rinsed to remove unbound analyte. Taking advantage of the strong interaction between SA and biotin, thin films were then submerged in a solution of biotinylated horseradish peroxidase (biotin-HRP). Bound SA was detected colorimetrically through the HRP-mediated oxidation of 3,3′,5,5′-tetramethylbenzidine (TMB). Attempts to perform this assay using mSA2 as the analyte were unsuccessful, even when run on an rcSso7d.SA monolayer.

streptavidin [5] = biological target: T1, streptavidin; test: fluorescent binding curve, labeled SA in PBS, 4 h exposure; quadratic fit
[6] = biological target: monomeric streptavidin variant mSA2; test: fluorescent binding curve, labeled mSA2 in 50% blood serum, 4 h; quadratic fit
streptavidin [7] = biological target: T1, streptavidin; test: sandwich assay, SA in 50% blood serum, detection with biotin-HRP and TMB
Description: as §3, §4

streptavidin [8] = biological target: T1, streptavidin; test: apparent Kd (Kd,app); fluorescent binding curve, labeled SA in PBS, 0.5 h exposure; quadratic fit
streptavidin [9] = biological target: T1, streptavidin; test: apparent Kd (Kd,app); fluorescent binding curve, labeled SA in 50% blood serum, 4 h; quadratic fit
streptavidin [10] = biological target: T1, streptavidin; test: fluorescent binding assay, labeled SA in 50% urine on thin film, 4 h exposure
[11] = biological target: monomeric streptavidin variant mSA2; test: fluorescent binding curve, labeled mSA2 in 50% urine, 4 h; quadratic fit
[12] = biological target: monomeric streptavidin variant mSA2; test: apparent Kd (Kd,app); fluorescent binding curve, labeled mSA2 in 50% urine, 4 h; quadratic fit
streptavidin [13] = biological target: T1, streptavidin; test: apparent Kd (Kd,app); fluorescent binding curve, labeled SA in 50% urine, 4 h; quadratic fit
streptavidin [14] = biological target: T1, streptavidin; test: fluorescent binding curve, labeled SA in 50% blood serum, 4 h
Description: as §1, with “film.” for “film. Films were incubated in a sealed chamber saturated with water vapor at room temperature to prevent to prevent drying of the applied fluorescent samples.”
(§5) To evaluate how the apparent size-based diffusion properties translated to biosensing capabilities, binding curves were measured using SA and mSA2 solutions in buffer. […]

[15] = biological target: monomeric streptavidin variant mSA2; test: apparent Kd (Kd,app); fluorescent binding curve, labeled mSA2 in 50% blood serum, 4 h; quadratic fit
[16] = biological target: monomeric streptavidin variant mSA2; test: fluorescent binding assay, labeled mSA2 in 50% urine on thin film, 4 h exposure
Description: as §1, §2

streptavidin [17] = biological target: T1, streptavidin; test: sandwich assay: SA in 50% urine, biotin-HRP/TMB detection
Description: as §3, §4

streptavidin [18] = biological target: T1, streptavidin; test: fluorescent binding curve fits, labeled SA in PBS, 30 min exposure
Description: as §1, with “film.” for “film. Films were incubated in a sealed chamber saturated with water vapor at room temperature to prevent to prevent drying of the applied fluorescent samples.”
as §5

BSA = biological target: T2, BSA (bovine, UniProt P02769); test: fluorescence of Alexa Fluor 488-labeled BSA retained in a 144 nm 3xSP77.6k thin film after rinsing with water for 0-30 s
T2 construct: full protein, fluorescently labeled; non-specific retention control; also called BSA labeled with Alexa Fluor 488

streptavidin [19] = biological target: T1, streptavidin; test: fluorescent binding assay, labeled SA in 50% blood serum on thin film, 4 h exposure
streptavidin [20] = biological target: T1, streptavidin; test: apparent Kd (Kd,app); fluorescent binding curve, labeled SA in PBS, 8 h exposure; quadratic fit
[21] = biological target: monomeric streptavidin variant mSA2; test: fluorescent binding curves, labeled mSA2 in 50% urine or 50% blood serum, 4 h
streptavidin [22] = biological target: T1, streptavidin; test: apparent Kd (Kd,app); fluorescent binding curve, labeled SA in PBS, 4 h exposure; quadratic fit
streptavidin [23] = biological target: T1, streptavidin; test: sandwich assay, SA in PBS, detection with biotin-HRP and TMB, absorbance at 450 nm
Description: as §3
The general procedure for this proof-of-concept experiment is diagrammed in FIG. 28. […] Bound SA was detected colorimetrically through the HRP-mediated oxidation of 3,3′,5,5′-tetramethylbenzidine (TMB). […]

[24] = biological target: monomeric streptavidin variant mSA2; test: fluorescent binding curve, labeled mSA2 in PBS, 4 h exposure; quadratic fit
Description: as §1, §2

[25] = biological target: monomeric streptavidin variant mSA2; test: fluorescent binding curve, labeled mSA2 in PBS, 4 h exposure
Description: as §1, with “film.” for “film. Films were incubated in a sealed chamber saturated with water vapor at room temperature to prevent to prevent drying of the applied fluorescent samples.”
as §5

[26] = biological target: monomeric streptavidin variant mSA2; test: apparent Kd (Kd,app); fluorescent binding curve, labeled mSA2 in PBS, 8 h exposure; quadratic fit
Description: as §1, with “film.” for “film. Films were incubated in a sealed chamber saturated with water vapor at room temperature to prevent to prevent drying of the applied fluorescent samples.”
as §5

[27] = biological target: monomeric streptavidin variant mSA2; test: fluorescent binding curve fits, labeled mSA2 in PBS
Description: The binding function of rcSso7d.SA oligomer-PNIPAM thin films was measured using fluorescently-labeled monomeric streptavidin (mSA2) and fluorescently-labeled streptavidin (SA). Details for the expression, purification, and fluorescent labeling of mSA2 are provided below. Samples were prepared by serial dilution of SA or mSA2 in PBS (pH 7.4), human urine (diluted to 50% v/v in PBS, pH 7.4), or blood serum (obtained as the supernatant by centrifuging whole blood at 1500×g for 10 minutes, then diluted to 50% v/v in PBS, pH 7.4). […] After 1 hour, films were thoroughly rinsed with water for 10 seconds (a time determined to be sufficient to remove unbound molecules from the film, see FIG. 33, dried under filtered airflow, and immediately analyzed for fluorescent signal. Fluorescence microscopy images were acquired at 4× magnification using a Cy5 filter set and exposure time of 5000 ms on an Olympus IX-81 inverted fluorescence microscope with an AxioCam HRC CCD camera. Fluorescent intensity was calculated using ImageJ software⁶⁷ by determining the average fluorescent signal in a rectangular area of the fluorescent image free of defects and occupying no less than half of the full sample application area.
as §5

[28] = biological target: monomeric streptavidin variant mSA2; test: apparent Kd (Kd,app); fluorescent binding curve, labeled mSA2 in PBS, 0.5 h exposure; quadratic fit
[29] = biological target: monomeric streptavidin variant mSA2; test: apparent Kd (Kd,app); fluorescent binding curve, labeled mSA2 in PBS, 4 h exposure; quadratic fit
Description: as §1, §2

T1 sequence (P22629 37-163 limits assumed): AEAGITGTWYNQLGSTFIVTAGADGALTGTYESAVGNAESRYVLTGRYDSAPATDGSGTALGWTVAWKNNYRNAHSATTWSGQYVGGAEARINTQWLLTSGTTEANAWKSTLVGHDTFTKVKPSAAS
T2 sequence (P02769 25-607 limits assumed): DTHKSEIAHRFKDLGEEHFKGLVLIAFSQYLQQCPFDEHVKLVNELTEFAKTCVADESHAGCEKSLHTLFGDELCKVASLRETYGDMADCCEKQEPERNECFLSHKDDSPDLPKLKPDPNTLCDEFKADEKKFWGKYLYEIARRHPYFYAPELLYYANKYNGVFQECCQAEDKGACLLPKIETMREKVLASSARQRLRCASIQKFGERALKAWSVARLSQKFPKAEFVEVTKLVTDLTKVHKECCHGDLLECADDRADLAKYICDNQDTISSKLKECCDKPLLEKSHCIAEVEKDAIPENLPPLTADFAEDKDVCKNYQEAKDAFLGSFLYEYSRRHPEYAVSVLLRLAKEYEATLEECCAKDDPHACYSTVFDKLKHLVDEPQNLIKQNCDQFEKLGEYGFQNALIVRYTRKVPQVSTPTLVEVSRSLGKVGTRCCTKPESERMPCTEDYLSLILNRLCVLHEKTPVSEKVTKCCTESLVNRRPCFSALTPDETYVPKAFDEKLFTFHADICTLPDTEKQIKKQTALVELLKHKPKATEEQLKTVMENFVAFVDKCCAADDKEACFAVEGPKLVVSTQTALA

B1: 3xSP77.6k thin film (3x rcSso7d.SA-PNIPAM conjugate, PNIPAM Mn 77.6 kDa) (designed binder)
chain: MGSSHHHHHHSSGLVPRGSHMCATVKFTYQGEEKQVDISKIKIVARDGQYIDFKYDEGGGAYGYGWVSEKDAPKELLQMLEKQGGGGSGGGGSMATVKFTYQGEEKQVDISKIKIVARDGQYIDFKYDEGGGAYGYGWVSEKDAPKELLQMLEKQGGGGSGGGGSMATVKFTYQGEEKQVDISKIKIVARDGQYIDFKYDEGGGAYGYGWVSEKDAPKELLQMLEKQGG
modifications: maleimide end-functionalized PNIPAM (Mn 77.6 kDa) on the N-terminal Cys; film lightly crosslinked with glutaraldehyde
Question: How did the “Limit of Detection” value [1] turn out when B1 was run?
Answer: 56 nM

Question: And the “[P]T (total concentration of binding sites)” value (streptavidin [2])?
Answer: 0.3 nM

Question: What about the “[P]T (total concentration of binding sites)” value (streptavidin [3]) of the same binder?
Answer: 0.6 nM

Question: What about the LOD (streptavidin [4]) of the same binder?
Answer: 85 nM

Question: And the “[P]T (total concentration of binding sites)” value (streptavidin [5])?
Answer: 0.41 nM

Question: What about the “[P]T (total concentration of binding sites)” value [6] of the same binder?
Answer: 4.5 nM

Question: What about the “LOD relative to rcSso7d.SA monolayer” value (streptavidin [7]) of the same binder?
Answer: 2 fold

Question: What about the Kd (streptavidin [8]) of the same binder?
Answer: 80 µM

Question: What about the Kd (streptavidin [9]) of the same binder?
Answer: 40 µM

Question: And the “Limit of Detection” value (streptavidin [10])?
Answer: 800 nM

Question: What about the “[P]T (total concentration of binding sites)” value [11] of the same binder?
Answer: 15 nM

Question: What about the Kd [12] of the same binder?
Answer: 31 µM

Question: What about the Kd (streptavidin [13]) of the same binder?
Answer: 50 µM

Question: What about the “reduction in LOD relative to rcSso7d.SA monolayer” value (streptavidin [14]) of the same binder?
Answer: ~2 fold

Question: And the Kd [15]?
Answer: 35 µM

Question: And the “Limit of Detection” value [16]?
Answer: 14 nM

Question: What about the LOD (streptavidin [17]) of the same binder?
Answer: 33 nM

Question: What about the “binding sites accessed relative to the 3×SP9.6k film” value (streptavidin [18]) of the same binder?
Answer: ~4 fold

Question: Does B1 bind (BSA)?
Answer: no binding (tested: 10 µM)

Question: And the “Limit of Detection” value (streptavidin [19])?
Answer: 420 nM

Question: What about the Kd (streptavidin [20]) of the same binder?
Answer: 15 µM

Question: And the “LOD relative to rcSso7d.SA monolayer” value [21]?
Answer: 2 orders of magnitude lower

Question: And the Kd (streptavidin [22])?
Answer: 17 µM

Question: And the “LOD relative to rcSso7d.SA monolayer” value (streptavidin [23])?
Answer: ~2 fold

B2: 3xSP56.1k thin film (3x rcSso7d.SA-PNIPAM conjugate, PNIPAM Mn 56.1 kDa) (designed binder)
chain: MGSSHHHHHHSSGLVPRGSHMCATVKFTYQGEEKQVDISKIKIVARDGQYIDFKYDEGGGAYGYGWVSEKDAPKELLQMLEKQGGGGSGGGGSMATVKFTYQGEEKQVDISKIKIVARDGQYIDFKYDEGGGAYGYGWVSEKDAPKELLQMLEKQGGGGSGGGGSMATVKFTYQGEEKQVDISKIKIVARDGQYIDFKYDEGGGAYGYGWVSEKDAPKELLQMLEKQGG
modifications: maleimide end-functionalized PNIPAM (Mn 56.1 kDa) on the N-terminal Cys; film lightly crosslinked with glutaraldehyde
Question: How did the “[P]T (total concentration of binding sites)” value [24] turn out when B2 was run?
Answer: 3.2 nM

Question: What about the “reduction in LOD relative to rcSso7d.SA monolayer” value [25] of the same binder?
Answer: ~4 fold

Question: And the Kd [26]?
Answer: 13 µM

Question: And the “accessible binding sites relative to the 3×SP9.6k film” value [27]?
Answer: > 4 fold

Question: And the Kd [28]?
Answer: 33 µM

Question: And the Kd [29]?
Answer: 16 µM
